Assay results as given in article PMC2525512.

Target: T1, murine OX40-human IgG Fc fusion (extracellular portion) (Mus musculus, UniProt P47741 20-211)
T1 sequence: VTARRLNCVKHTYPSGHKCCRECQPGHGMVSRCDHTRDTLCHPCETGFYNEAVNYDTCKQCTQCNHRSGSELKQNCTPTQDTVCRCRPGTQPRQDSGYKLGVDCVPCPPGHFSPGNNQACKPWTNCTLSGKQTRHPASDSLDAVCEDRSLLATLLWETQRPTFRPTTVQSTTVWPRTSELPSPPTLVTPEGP
Test: filter binding

B1: aptamer 9.8PM (point mutant) (structured_RNA)
RNA: GGGAGGACGAUGCGGCAGUCUGCAUCGUAGGAUUAGCCACCGUAUACUUUCCCACCAGACGACUCGCUGAGGAUCCGAGA
modifications: 2'-fluoro pyrimidines, 2'-OH purines
  binding result: no binding
